In patent US20200157212A1 (Pfizer, published 2020):

T1: Terbium (Tb) labeled-SNAP tagged ROBO2 expressed on HEK293 cells (Homo sapiens (Human), UniProt Q9HCK4 22-1378, terbium label on the SNAP tag)
T1 construct: also called Tb-labeled ROBO2 cells; ROBO2 expressing cells; not shown: SNAP tag
T1 sequence: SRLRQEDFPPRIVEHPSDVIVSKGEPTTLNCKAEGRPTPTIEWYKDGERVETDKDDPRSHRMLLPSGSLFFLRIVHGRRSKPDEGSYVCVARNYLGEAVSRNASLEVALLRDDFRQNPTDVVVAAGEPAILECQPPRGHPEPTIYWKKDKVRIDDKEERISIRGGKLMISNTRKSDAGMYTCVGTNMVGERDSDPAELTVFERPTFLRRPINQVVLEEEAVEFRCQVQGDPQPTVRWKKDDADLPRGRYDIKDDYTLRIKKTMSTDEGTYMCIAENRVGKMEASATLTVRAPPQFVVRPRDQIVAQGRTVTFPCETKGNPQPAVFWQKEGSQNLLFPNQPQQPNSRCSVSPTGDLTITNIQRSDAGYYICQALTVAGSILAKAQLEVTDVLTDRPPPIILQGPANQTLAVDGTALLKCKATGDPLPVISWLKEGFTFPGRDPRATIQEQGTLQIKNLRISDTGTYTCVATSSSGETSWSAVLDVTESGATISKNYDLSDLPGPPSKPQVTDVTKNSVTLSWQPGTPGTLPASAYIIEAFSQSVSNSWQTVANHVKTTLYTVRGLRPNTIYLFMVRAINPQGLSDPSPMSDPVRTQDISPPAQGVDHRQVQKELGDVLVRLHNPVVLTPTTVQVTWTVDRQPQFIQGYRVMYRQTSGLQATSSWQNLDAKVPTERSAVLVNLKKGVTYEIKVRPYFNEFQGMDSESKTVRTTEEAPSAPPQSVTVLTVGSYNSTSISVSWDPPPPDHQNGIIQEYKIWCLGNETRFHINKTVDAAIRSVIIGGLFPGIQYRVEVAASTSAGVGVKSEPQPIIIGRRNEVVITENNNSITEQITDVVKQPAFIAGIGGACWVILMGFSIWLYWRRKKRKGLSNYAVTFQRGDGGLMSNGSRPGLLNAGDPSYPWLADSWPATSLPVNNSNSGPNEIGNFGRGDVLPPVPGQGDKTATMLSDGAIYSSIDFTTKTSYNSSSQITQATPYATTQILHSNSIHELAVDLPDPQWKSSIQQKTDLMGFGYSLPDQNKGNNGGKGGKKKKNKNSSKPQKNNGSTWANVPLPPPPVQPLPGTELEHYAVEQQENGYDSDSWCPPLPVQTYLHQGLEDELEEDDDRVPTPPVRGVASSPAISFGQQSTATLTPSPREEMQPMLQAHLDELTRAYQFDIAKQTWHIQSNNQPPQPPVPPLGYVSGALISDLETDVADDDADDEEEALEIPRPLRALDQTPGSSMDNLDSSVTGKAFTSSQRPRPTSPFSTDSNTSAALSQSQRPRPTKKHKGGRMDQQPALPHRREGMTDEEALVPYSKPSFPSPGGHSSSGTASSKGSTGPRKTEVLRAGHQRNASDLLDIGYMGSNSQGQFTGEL


Molecular target: T1, Terbium (Tb) labeled-SNAP tagged ROBO2 …
Experiment: HTRF competition, competitor d2-SLIT2-N, ROBO2 HEK293 cells

Binder	IC50 [nM]
Abcs35 (antibody, human IgG1, kappa, fully human IgG1; VH of Ab96 with VL of Ab123) heavy: EVQLVQSGAEVKKPGASVKVSCKASGYTFTGYYMHWVRQAPGQGLEWMGWINPKNGDTEFPQKFQGRVTMTRDTSITTAYMDLSRLRSDDTAVYYCARESGDDAFDIWGQGTMVTVSSASTKGPSVFPLAPSSKSTSGGTAALGCLVKDYFPEPVTVSWNSGALTSGVHTFPAVLQSSGLYSLSSVVTVPSSSLGTQTYICNVNHKPSNTKVDKKVEPKSCDKTHTCPPCPAPEAAGAPSVFLFPPKPKDTLMISRTPEVTCVVVDVSHEDPEVKFNWYVDGVEVHNAKTKPREEQYNSTYRVVSVLTVLHQDWLNGKEYKCKVSNKALPAPIEKTISKAKGQPREPQVYTLPPSREEMTKNQVSLTCLVKGFYPSDIAVEWESNGQPENNYKTTPPVLDSDGSFFLYSKLTVDKSRWQQGNVFSCSVMHEALHNHYTQKSLSLSPGK light: DIVMTQSPSSLSASVGDRVTITCRASQSISSYLNWYQQKPGKAPKLLIYAASSLQSGVPSRFSGSGSGTDFTLTISSLQPEDFATYYCQQSVGLFFGGGTKVEIKRTVAAPSVFIFPPSDEQLKSGTASVVCLLNNFYPREAKVQWKVDNALQSGNSQESVTEQDSKDSTYSLSSTLTLSKADYEKHKVYACEVTHQGLSSPVTKSFNRGEC	0.0761
Abcs35-J (antibody, human IgG1, kappa, germlined variant of Abcs35; also called ABCS-J) heavy: EVQLVQSGAEVKKPGASVKVSCKASGYTFTGYYMHWVRQAPGQGLEWMGWINPKNGDTEFPQKFQGRVTMTRDTSITTAYMELSRLRSDDTAVYYCARESGDDAFDIWGQGTMVTVSSASTKGPSVFPLAPSSKSTSGGTAALGCLVKDYFPEPVTVSWNSGALTSGVHTFPAVLQSSGLYSLSSVVTVPSSSLGTQTYICNVNHKPSNTKVDKKVEPKSCDKTHTCPPCPAPEAAGAPSVFLFPPKPKDTLMISRTPEVTCVVVDVSHEDPEVKFNWYVDGVEVHNAKTKPREEQYNSTYRVVSVLTVLHQDWLNGKEYKCKVSNKALPAPIEKTISKAKGQPREPQVYTLPPSREEMTKNQVSLTCLVKGFYPSDIAVEWESNGQPENNYKTTPPVLDSDGSFFLYSKLTVDKSRWQQGNVFSCSVMHEALHNHYTQKSLSLSPGK light: not shown	0.0744
